Assay results as given in patent US20240270846A1 (published 2024).
Where a chain is given by its changes, count along the chain named. Names may count otherwise.

B1: CE115HA000 D72A one-arm antibody (antibody, human IgG1, kappa, L234A L235A, N297A, name in Kabat numbering)
heavy: QVQLVESGGGVVQPGRSLRLSCAASGFTFSNAWMHWVRQAPGKGLEWVAQIKAKSNNYATYYAESVKGRFTISRADSKNSLYLQMNSLKTEDTAVYYCRYVHYGAYYGVDAWGQGTTVTVSSASTKGPSVFPLAPSSKSTSGGTAALGCLVKDYFPEPVTVSWNSGALTSGVHTFPAVLQSSGLYSLSSVVTVPSSSLGTQTYICNVNHKPSNTKVDKKVEPKSCDKTHTCPPCPAPEAAGGPSVFLFPPKPKDTLMISRTPEVTCVVVDVSHEDPEVKFNWYVDGVEVHNAKTKPREEQYASTYRVVSVLTVLHQDWLNGKEYKCKVSNKALPAPIEKTISKAKGQPREPQVYTLPPSRCELTKNQVSLSCAVKGFYPSDIAVEWESNGQPENNYKTTPPVLDSDGSFFLVSKLTVDKSRWQQGNVFSCSVMHEALHNHYTQKSLSLSPDYKDDDDK
chain: EPKSSDKTHTCPPCPAPELLGGPSVFLFPPKPKDTLMISRTPEVTCVVVDVSHEDPEVKFNWYVDGVEVHNAKTKPREEQYNSTYRVVSVLTVLHQDWLNGKEYKCKVSNKALPAPIEKTISKAKGQPREPQVCTLPPSRDELTKNQVSLWCLVKGFYPSDIAVEWESNGQPENNYKTTPPVLDSDGSFFLYSKLTVDKSRWQQGNVFSCSVMHEALHNRYTQKSLSLSP
light: DIVMTQSPLSLPVTPGEPASISCRSSQSLVHSNRNTYLHWYQQKPGQAPRLLIYKVSNRFSGVPDRFSGSGSGTDFTLKISRVEAEDVGVYYCGQGTQVPYTFGQGTKLEIKRTVAAPSVFIFPPSDEQLKSGTASVVCLLNNFYPREAKVQWKVDNALQSGNSQESVTEQDSKDSTYSLSSTLTLSKADYEKHKVYACEVTHQGLSSPVTKSFNRGEC
notes: one-arm antibody
B2: CE115HA000 I51E one-arm antibody (antibody, human IgG1, kappa, L234A L235A, N297A, name in Kabat numbering)
heavy: B1 heavy with I51E, A75D
chain: B1 chain
light: B1 light
notes: one-arm antibody
B3: CE115HA000 H35T one-arm antibody (antibody, human IgG1, kappa, L234A L235A, N297A, name in Kabat numbering)
heavy: B1 heavy with H35T, A75D
chain: B1 chain
light: B1 light
notes: one-arm antibody
B4: CE115HA000 I51D one-arm antibody (antibody, human IgG1, kappa, L234A L235A, N297A, name in Kabat numbering)
heavy: B1 heavy with I51D, A75D
chain: B1 chain
light: B1 light
notes: one-arm antibody
B5: CE115HA000 H35F one-arm antibody (antibody, human IgG1, kappa, L234A L235A, N297A, name in Kabat numbering)
heavy: B1 heavy with H35F, A75D
chain: B1 chain
light: B1 light
notes: one-arm antibody
B6: CE115HA000 E61D one-arm antibody (antibody, human IgG1, kappa, L234A L235A, N297A, name in Kabat numbering)
heavy: B1 heavy with E64D, A75D
chain: B1 chain
light: B1 light
notes: one-arm antibody
B7: CE115HA000 H35I one-arm antibody (antibody, human IgG1, kappa, L234A L235A, N297A, name in Kabat numbering)
heavy: B1 heavy with H35I, A75D
chain: B1 chain
light: B1 light
notes: one-arm antibody
B8: CE115HA000 H35Q one-arm antibody (antibody, human IgG1, kappa, L234A L235A, N297A, name in Kabat numbering)
heavy: B1 heavy with H35Q, A75D
chain: B1 chain
light: B1 light
notes: one-arm antibody
B9: CE115HA000 H35S one-arm antibody (antibody, human IgG1, kappa, L234A L235A, N297A, name in Kabat numbering)
heavy: B1 heavy with H35S, A75D
chain: B1 chain
light: B1 light
notes: one-arm antibody
B10: CE115HA000 F29V one-arm antibody (antibody, human IgG1, kappa, L234A L235A, N297A, name in Kabat numbering)
heavy: B1 heavy with F29V, A75D
chain: B1 chain
light: B1 light
notes: one-arm antibody
B11: CE115HA000 H35K one-arm antibody (antibody, human IgG1, kappa, L234A L235A, N297A, name in Kabat numbering)
heavy: B1 heavy with H35K, A75D
chain: B1 chain
light: B1 light
notes: one-arm antibody
B12: CE115HA000 K43Q one-arm antibody (antibody, human IgG1, kappa, L234A L235A, N297A, name in Kabat numbering)
heavy: B1 heavy with K43Q, A75D
chain: B1 chain
light: B1 light
notes: one-arm antibody
B13: CE115HA000 D73K one-arm antibody (antibody, human IgG1, kappa, L234A L235A, N297A, name in Kabat numbering)
heavy: B1 heavy with A75D, D76K
chain: B1 chain
light: B1 light
notes: one-arm antibody
B14: CE115HA000 K52D one-arm antibody (antibody, human IgG1, kappa, L234A L235A, N297A, name in Kabat numbering)
heavy: B1 heavy with K52D, A75D
chain: B1 chain
light: B1 light
notes: one-arm antibody
B15: CE115HA000 G65E one-arm antibody (antibody, human IgG1, kappa, L234A L235A, N297A, name in Kabat numbering)
heavy: B1 heavy with G68E, A75D
chain: B1 chain
light: B1 light
notes: one-arm antibody
B16: CE115HA000 D73A one-arm antibody (antibody, human IgG1, kappa, L234A L235A, N297A, name in Kabat numbering)
heavy: B1 heavy with A75D, D76A
chain: B1 chain
light: B1 light
notes: one-arm antibody
B17: CE115HA000 H35R one-arm antibody (antibody, human IgG1, kappa, L234A L235A, N297A, name in Kabat numbering)
heavy: B1 heavy with H35R, A75D
chain: B1 chain
light: B1 light
notes: one-arm antibody
B18: CE115HA000 K52E one-arm antibody (antibody, human IgG1, kappa, L234A L235A, N297A, name in Kabat numbering)
heavy: B1 heavy with K52E, A75D
chain: B1 chain
light: B1 light
notes: one-arm antibody
B19: CE115HA000 K43E one-arm antibody (antibody, human IgG1, kappa, L234A L235A, N297A, name in Kabat numbering)
heavy: B1 heavy with K43E, A75D
chain: B1 chain
light: B1 light
notes: one-arm antibody
B20: CE115HA000 H35L one-arm antibody (antibody, human IgG1, kappa, L234A L235A, N297A, name in Kabat numbering)
heavy: B1 heavy with H35L, A75D
chain: B1 chain
light: B1 light
notes: one-arm antibody
B21: CE115HA000 H35W one-arm antibody (antibody, human IgG1, kappa, L234A L235A, N297A, name in Kabat numbering)
heavy: B1 heavy with H35W, A75D
chain: B1 chain
light: B1 light
notes: one-arm antibody
B22: CE115HA000 H35Y one-arm antibody (antibody, human IgG1, kappa, L234A L235A, N297A, name in Kabat numbering)
heavy: B1 heavy with H35Y, A75D
chain: B1 chain
light: B1 light
notes: one-arm antibody
B23: CE115HA000 H35E one-arm antibody (antibody, human IgG1, kappa, L234A L235A, N297A, name in Kabat numbering)
heavy: B1 heavy with H35E, A75D
chain: B1 chain
light: B1 light
notes: one-arm antibody
B24: CE115HA000 D73G one-arm antibody (antibody, human IgG1, kappa, L234A L235A, N297A, name in Kabat numbering)
heavy: B1 heavy with A75D, D76G
chain: B1 chain
light: B1 light
notes: one-arm antibody
B25: CE115HA000 H35M one-arm antibody (antibody, human IgG1, kappa, L234A L235A, N297A, name in Kabat numbering)
heavy: B1 heavy with H35M, A75D
chain: B1 chain
light: B1 light
notes: one-arm antibody
B26: CE115HA000 D72E one-arm antibody (antibody, human IgG1, kappa, L234A L235A, N297A, name in Kabat numbering)
heavy: B1 heavy with A75E
chain: B1 chain
light: B1 light
notes: one-arm antibody
B27: CE115HA000 H35V one-arm antibody (antibody, human IgG1, kappa, L234A L235A, N297A, name in Kabat numbering)
heavy: B1 heavy with H35V, A75D
chain: B1 chain
light: B1 light
notes: one-arm antibody
B28: CE115HA000 H35N one-arm antibody (antibody, human IgG1, kappa, L234A L235A, N297A, name in Kabat numbering)
heavy: B1 heavy with H35N, A75D
chain: B1 chain
light: B1 light
notes: one-arm antibody
B29: CE115HA000 H35D one-arm antibody (antibody, human IgG1, kappa, L234A L235A, N297A, name in Kabat numbering)
heavy: B1 heavy with H35D, A75D
chain: B1 chain
light: B1 light
notes: one-arm antibody
B30: CE115HA000 E61A one-arm antibody (antibody, human IgG1, kappa, L234A L235A, N297A, name in Kabat numbering)
heavy: B1 heavy with E64A, A75D
chain: B1 chain
light: B1 light
notes: one-arm antibody
B31: CE115HA000 G65D one-arm antibody (antibody, human IgG1, kappa, L234A L235A, N297A, name in Kabat numbering)
heavy: B1 heavy with G68D, A75D
chain: B1 chain
light: B1 light
notes: one-arm antibody
B32: CE115HA000 H35G one-arm antibody (antibody, human IgG1, kappa, L234A L235A, N297A, name in Kabat numbering)
heavy: B1 heavy with H35G, A75D
chain: B1 chain
light: B1 light
notes: one-arm antibody
B33: CE115HA000 D73E one-arm antibody (antibody, human IgG1, kappa, L234A L235A, N297A, name in Kabat numbering)
heavy: B1 heavy with A75D, D76E
chain: B1 chain
light: B1 light
notes: one-arm antibody

Each binder was assayed against T1, CD3 epsilon homodimer protein (UniProt P07766 23-126) (assay: SPR Biacore T200, antibody over immobilised CD3e homodimer;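 also: CD3 epsilon homodimer amine-coupled on a CM4 chip, run at 25 °C in HBS-EP+, Z = bound amount of each single-residue H chain variant over that of the parent antibody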).
T1 construct: also called CD3 (CD3 epsilon)
T1 sequence (P07766 23-126): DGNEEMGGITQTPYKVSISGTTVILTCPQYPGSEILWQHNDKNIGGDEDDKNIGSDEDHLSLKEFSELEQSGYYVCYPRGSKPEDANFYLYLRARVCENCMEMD

ratio of amounts bound (Z=Y/X vs CE115HA000) | Binder
1.41 | B1
0.55 | B2
0.26 | B3
0.29 | B4
0.21 | B5
0.91 | B6
0.12 | B7
0.13 | B8
0.23 | B9
0.36 | B10
0.15 | B11
0.99 | B12
0.87 | B13
0.25 | B14
0.78 | B15
0.83 | B16
0.14 | B17

ratio of amounts bound (Z=Y/X vs CE115HA000) | Binder
0.26 | B18
0.9 | B19
0.11 | B20
0.22 | B21
0.16 | B22
0.19 | B23
1.07 | B24
0.29 | B25
1.05 | B26
0.22 | B27
0.35 | B28
0.2 | B29
1.09 | B30
0.76 | B31
0.22 | B32
0.73 | B33
